We go through 64 molecules from patent US20200087363A1 (IMMATICS BIOTECHNOLOGIES, published 2020).

The target of this assay is T1, HLA-B*44:05 (human).
T1 construct: also called peptide-receptive MHC class I molecule
Briefly: UV peptide exchange, anti-b2m ELISA. Here is the method: Only peptide candidates that can effectively bind and stabilize the peptide-receptive MHC molecules prevent dissociation of the MHC complexes. To determine the yield of the exchange reaction, an ELISA was performed based on the detection of the light chain (β2m) of stabilized MHC complexes. The assay was performed as generally described in Rodenko et al. (Rodenko et al., 2006)
96 well MAXISorp plates (NUNC) were coated over night with 2 ug/ml streptavidin in PBS at room temperature, washed 4× and blocked for 1 h at 37° C. in 2% BSA containing blocking buffer. […] Peptide-MHC monomers of the UV-exchange reaction were diluted 100-fold in blocking buffer. Samples were incubated for 1 h at 37° C., washed four times, incubated with 2 ug/ml HRP conjugated anti-β2m for 1 h at 37° C., washed again and detected with TMB solution that is stopped with […]. Absorption was measured at 450 nm.
(In general: In an ELISA, binding on a coated surface is turned into a signal by an enzyme label.)

B1: QEILHGAVRF (peptide)
peptide: QEILHGAVRF
Take B1: the peptide exchange yield was in the range of 50 to 75%.

B2: SVNPIIYGF (peptide)
peptide: SVNPIIYGF
In turn, B2 registered a peptide exchange yield of 20 to 50%.

B3: AELDHLASL (peptide)
peptide: AELDHLASL
Molecule B3 had a peptide exchange yield of 50 to 75%.

B4: KEAFGPQAL (peptide)
peptide: KEAFGPQAL
Turning to B4, the peptide exchange yield was > 75%.

B5: VEAATVSKW (peptide)
peptide: VEAATVSKW
B5 showed a peptide exchange yield of 50 to 75%.

B6: EELALRIGL (peptide)
peptide: EELALRIGL
The molecule B6 returned a peptide exchange yield of 50 to 75%.

B7: SEDTIHTHL (peptide)
peptide: SEDTIHTHL
Consider B7, for which the peptide exchange yield was in the range of 50 to 75%.

B8: SEDLAVHL (peptide)
peptide: SEDLAVHL
On to B8, for which the peptide exchange yield is > 75%.

B9: EDLAVHLY (peptide)
peptide: EDLAVHLY
Regarding B9, the peptide exchange yield was in the range of 10 to 20%.

B10: VEDDNYKLSL (peptide)
peptide: VEDDNYKLSL
For the molecule B10, the peptide exchange yield lay in the range of 50 to 75%.

B11: SEKEPGQQY (peptide)
peptide: SEKEPGQQY
With B11, the peptide exchange yield was in the range of 20 to 50%.

B12: RLLPGKVVW (peptide)
peptide: RLLPGKVVW
Consider B12, for which the peptide exchange yield lay in the range of 20 to 50%.

B13: VEQINISQDW (peptide)
peptide: VEQINISQDW
As to B13, the peptide exchange yield was > 75%.

B14: KESMLKTTL (peptide)
peptide: KESMLKTTL
Molecule B14 displayed a peptide exchange yield of 50 to 75%.

B15: IEVSSPITLQAL (peptide)
peptide: IEVSSPITLQAL
In turn, B15 yielded a peptide exchange yield of 20 to 50%.

B16: DESADSEPHKY (peptide)
peptide: DESADSEPHKY
B16 gave a peptide exchange yield of 10 to 20%.

B17: QEIGQKTSV (peptide)
peptide: QEIGQKTSV
In turn, B17 showed a peptide exchange yield of 50 to 75%.

B18: QEVAGYVLI (peptide)
peptide: QEVAGYVLI
B18 yielded a peptide exchange yield of 50 to 75%.

B19: LEYEAPKLY (peptide)
peptide: LEYEAPKLY
Molecule B19 returned a peptide exchange yield of 20 to 50%.

B20: LEDQLKPMLEW (peptide)
peptide: LEDQLKPMLEW
B20 yielded a peptide exchange yield of 50 to 75%.

B21: CDAQIQYSY (peptide)
peptide: CDAQIQYSY
Consider B21, for which the peptide exchange yield lay in the range of 50 to 75%.

B22: SESLPRAPL (peptide)
peptide: SESLPRAPL
Take B22: the peptide exchange yield fell in the range of 50 to 75%.

B23: DEDYTYLIL (peptide)
peptide: DEDYTYLIL
B23 returned a peptide exchange yield of 20 to 50%.

B24: EEEVFSGMKL (peptide)
peptide: EEEVFSGMKL
For the molecule B24, the peptide exchange yield was > 75%.

B25: MEFQGPMPAGM (peptide)
peptide: MEFQGPMPAGM
Molecule B25 displayed a peptide exchange yield of 50 to 75%.

B26: QELLDIANYL (peptide)
peptide: QELLDIANYL
Regarding B26, the peptide exchange yield was > 75%.

B27: MELQVSSGF (peptide)
peptide: MELQVSSGF
In turn, B27 came in with a peptide exchange yield of 50 to 75%.

B28: AEALVDGKW (peptide)
peptide: AEALVDGKW
Molecule B28 had a peptide exchange yield of 50 to 75%.

B29: AEALVDGKWQEF (peptide)
peptide: AEALVDGKWQEF
In turn, B29 showed a peptide exchange yield of 50 to 75%.

B30: GETCVRITY (peptide)
peptide: GETCVRITY
Consider B30, for which the peptide exchange yield fell in the range of 50 to 75%.

B31: HEHGLFNLY (peptide)
peptide: HEHGLFNLY
As to B31, the peptide exchange yield was in the range of 50 to 75%.

B32: EEFIGKIGI (peptide)
peptide: EEFIGKIGI
Molecule B32 showed a peptide exchange yield of 20 to 50%.

B33: KESQLPTVMDF (peptide)
peptide: KESQLPTVMDF
On to B33, for which the peptide exchange yield fell in the range of 50 to 75%.

B34: ALTEDSIDDTF (peptide)
peptide: ALTEDSIDDTF
For the molecule B34, the peptide exchange yield was in the range of 10 to 20%.

B35: VELMFPLLL (peptide)
peptide: VELMFPLLL
B35: the peptide exchange yield is 50 to 75%.

B36: REDLVGPEV (peptide)
peptide: REDLVGPEV
B36 yielded a peptide exchange yield of 50 to 75%.

B37: EVEVGDRTDW (peptide)
peptide: EVEVGDRTDW
For B37, the peptide exchange yield lay in the range of 20 to 50%.

B38: RELIKAIGL (peptide)
peptide: RELIKAIGL
In the case of B38, the peptide exchange yield is 50 to 75%.

B39: SEVEGLAFV (peptide)
peptide: SEVEGLAFV
B39 displayed a peptide exchange yield of 50 to 75%.

B40: QEDKATQTL (peptide)
peptide: QEDKATQTL
As for B40, the peptide exchange yield was > 75%.

B41: EDNLIHKF (peptide)
peptide: EDNLIHKF
For B41, the peptide exchange yield lay in the range of 20 to 50%.

B42: TETDIDREY (peptide)
peptide: TETDIDREY
For B42, the peptide exchange yield was in the range of 20 to 50%.

B43: AEDLEKKYA (peptide)
peptide: AEDLEKKYA
Take B43: the peptide exchange yield is 20 to 50%.

B44: YEIRAEAL (peptide)
peptide: YEIRAEAL
In turn, B44 yielded a peptide exchange yield of 20 to 50%.

B45: IEVSSPITL (peptide)
peptide: IEVSSPITL
Turning to B45, the peptide exchange yield was > 75%.

B46: YEMAIYKKY (peptide)
peptide: YEMAIYKKY
B46: the peptide exchange yield was > 75%.

B47: TEEPQRLFY (peptide)
peptide: TEEPQRLFY
B47: the peptide exchange yield lay in the range of 10 to 20%.

B48: SEASVYLFRF (peptide)
peptide: SEASVYLFRF
Consider B48, for which the peptide exchange yield fell in the range of 50 to 75%.

B49: KQWEYNEKLAF (peptide)
peptide: KQWEYNEKLAF
Take B49: the peptide exchange yield was in the range of 10 to 20%.

B50: QEWDPQKTEKY (peptide)
peptide: QEWDPQKTEKY
Consider B50, for which the peptide exchange yield is 50 to 75%.

B51: QEFPAHSL (peptide)
peptide: QEFPAHSL
For the molecule B51, the peptide exchange yield fell in the range of 50 to 75%.

B52: VELEVPQL (peptide)
peptide: VELEVPQL
B52: the peptide exchange yield lay in the range of 20 to 50%.

B53: AEQLRGFNA (peptide)
peptide: AEQLRGFNA
The molecule B53 returned a peptide exchange yield of 50 to 75%.

B54: WEVEVGDRTDW (peptide)
peptide: WEVEVGDRTDW
B54 displayed a peptide exchange yield of 50 to 75%.

B55: AGSPVMRKW (peptide)
peptide: AGSPVMRKW
In turn, B55 displayed a peptide exchange yield of 20 to 50%.

B56: YENILNAI (peptide)
peptide: YENILNAI
B56 came in with a peptide exchange yield of 20 to 50%.

B57: DEDLFHKL (peptide)
peptide: DEDLFHKL
B57 returned a peptide exchange yield of 20 to 50%.

B58: VESSQAFTW (peptide)
peptide: VESSQAFTW
B58: the peptide exchange yield lay in the range of 50 to 75%.

B59: TEEITEGVW (peptide)
peptide: TEEITEGVW
For the molecule B59, the peptide exchange yield was > 75%.

B60: SEQNIQRANLF (peptide)
peptide: SEQNIQRANLF
In turn, B60 came in with a peptide exchange yield of 50 to 75%.

B61: REAEEKEAQL (peptide)
peptide: REAEEKEAQL
Molecule B61 came in with a peptide exchange yield of 50 to 75%.

B62: EESSSPVDEY (peptide)
peptide: EESSSPVDEY
In the case of B62, the peptide exchange yield was in the range of 20 to 50%.

B63: AEDNMVTSY (peptide)
peptide: AEDNMVTSY
In turn, B63 gave a peptide exchange yield of 50 to 75%.

B64: EEEDRDGHTW (peptide)
peptide: EEEDRDGHTW
In turn, B64 gave a peptide exchange yield of 50 to 75%.
